This is an account of results in patent US20220281936A1.

The test has as its target IL12 receptor on pre-activated mouse CD8+ T cells (mouse) (UniProt Q60837). Description: cell-based or functional assay.

B1: Mouse IL12 (unmodified) (ligand)
chain 1: RVIPVSGPARCLSQSRNLLKTTDDMVKTAREKLKHYSCTAEDIDHEDITRDQTSTLKTCLPLELHKNESCLATRETSSTTRGSCLPPQKTSLMMTLCLGSIYEDLKMYQTEFQAINAALQNHNHQQIILDKGMLVAIDELMQSLNHNGETLRQKPPVGEADPYRVKMKLCILLHAFSTRVVTINRVMGYLSSA
chain 2: MWELEKDVYVVEVDWTPDAPGETVNLTCDTPEEDDITWTSDQRHGVIGSGKTLTITVKEFLDAGQYTCHKGGETLSHSHLLLHKKENGIWSTEILKNFKNKTFLKCEAPNYSGRFTCSWLVQRNMDLKFNIKSSSSSPDSRAVTCGMASLSAEKVTLDQRDYEKYSVSCQEDVTCPTAEETLPIELALEARQQNKYENYSTSFFIRDIIKPDPPKNLQMKPLKNSQVEVSWEYPDSWSTPHSYFSLKFFVRIQRKKEKMKETEEGCNQKGAFLVEKTSTEVQCKGGNVCVQAQDRYYNSSCSKWACVPCRVRS
For B1, the EC50 of STAT4 phosphorylation in pre-activated mouse CD8+ T cells (flow cytometry) was determined as 16.3 pM.

B2: IL12Rβ1-LS-IL12 (protein)
chain 1: QLGASGPGDGCCVEKTSFPEGASGSPLGPRNLSCYRVSKTDYECSWQYDGPEDNVSHVLWCCFVPPNHTHTGQERCRYFSSGPDRTVQFWEQDGIPVLSKVNFWVESRLGNRTMKSQKISQYLYNWTKTTPPLGHIKVSQSHRQLRMDWNVSEEAGAEVQFRRRMPTTNWTLGDCGPQVNSGSGVLGDIRGSMSESCLCPSENMAQEIQIRRRRRLSSGAPGGPWSDWSMPVCVPPEVLPQAGLLSGRSDNHGGGSGGGSRVIPVSGPARCLSQSRNLLKTTDDMVKTAREKLKHYSCTAEDIDHEDITRDQTSTLKTCLPLELHKNESCLATRETSSTTRGSCLPPQKTSLMMTLCLGSIYEDLKMYQTEFQAINAALQNHNHQQIILDKGMLVAIDELMQSLNHNGETLRQKPPVGEADPYRVKMKLCILLHAFSTRVVTINRVMGYLSSAHHHHHH
chain 2: B1 chain 2
In turn, B2 had an EC50 of STAT4 phosphorylation in pre-activated mouse CD8+ T cells, fold against unmodified IL12 of 80 fold and a fold decrease in STAT4 phosphorylation in pre-activated mouse CD8+ T cells, noncleaved construct against IL12 (FIG. 3C) of 80 fold.

B3: IL12Rβ1-VP-IL12 (protein, part only; not given: IL12Rβ1 mask domains and linker, part only)
chain, part: VPLSLYSRVIPVSGPARCLSQSRNLLKTTDDMVKTAREKLKHYSCTAEDIDHEDITRDQTSTLKTCLPLELHKNESCLATRETSSTTRGSCLPPQKTSLMMTLCLGSIYEDLKMYQTEFQAINAALQNHNHQQIILDKGMLVAIDELMQSLNHNGETLRQKPPVGEADPYRVKMKLCILLHAFSTRVVTINRVMGYLSSA
chain: B1 chain 2
For the molecule B3, the EC50 of STAT4 phosphorylation in pre-activated mouse CD8+ T cells, fold against unmodified IL12 is 80 fold and the fold decrease in STAT4 phosphorylation in pre-activated mouse CD8+ T cells, noncleaved construct against IL12 (FIG. 3C) was determined as 80 fold.
